One series deals with T1, S-02 (S2) NK-TALEN (synthetic, UniProt Q56830 SEQ:41-735).
T1 chain: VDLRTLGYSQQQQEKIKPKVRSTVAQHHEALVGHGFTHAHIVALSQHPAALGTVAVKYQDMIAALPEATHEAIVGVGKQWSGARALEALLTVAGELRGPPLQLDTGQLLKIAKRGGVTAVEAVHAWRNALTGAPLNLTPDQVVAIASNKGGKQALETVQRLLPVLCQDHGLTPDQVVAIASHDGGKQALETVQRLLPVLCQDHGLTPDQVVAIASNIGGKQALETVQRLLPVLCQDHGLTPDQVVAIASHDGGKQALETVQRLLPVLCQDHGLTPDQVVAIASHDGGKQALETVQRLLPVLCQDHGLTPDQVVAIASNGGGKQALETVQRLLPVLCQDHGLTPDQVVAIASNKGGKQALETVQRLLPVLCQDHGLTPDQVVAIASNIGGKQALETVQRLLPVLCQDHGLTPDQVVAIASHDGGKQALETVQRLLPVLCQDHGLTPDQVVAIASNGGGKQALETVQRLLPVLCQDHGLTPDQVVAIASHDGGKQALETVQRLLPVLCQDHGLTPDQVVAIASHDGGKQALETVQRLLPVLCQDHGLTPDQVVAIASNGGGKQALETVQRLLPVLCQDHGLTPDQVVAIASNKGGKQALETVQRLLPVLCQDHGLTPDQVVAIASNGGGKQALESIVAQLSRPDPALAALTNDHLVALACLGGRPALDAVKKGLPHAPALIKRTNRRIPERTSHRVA
Briefly: cell_activity; monomer SSA assay. Particulars: tags: 3xFLAG, NLS, FokI. Here is the method: (§1) HEK293T cells (ATCC) were cultured in Dulbecco's Modified Eagle Medium (Sigma) supplemented with 10% FBS and 2 mM L-Glutamine. Cells were seeded 80,000 per well of a 24-well plate. After 4 h, cells were transfected with 200 ng of the TALEN plasmid (or 100 ng of each TALEN for hetero-dimeric pairs) and 10 ng of the corresponding SSA reporter plasmid using calcium phosphate transfection. Three control transfections were included: 1) 200 ng of an empty TALEN backbone and 10 ng of an SSA reporter plasmid, 2) 200 ng of an empty TALEN backbone and 10 ng of a pEGFP plasmid, and 3) 100 ng of each GFP-ZFN and 10 ng of an SSA reporter plasmid. Cells were harvested 48 h after transfection. The percentages of pEGFP-transfected samples expressing GFP were determined using an Accuri C6 flow cytometer, as an indication of transfection efficiency. Genomic DNA was isolated using QuickExtract DNA extraction solution (Epicentre) as described20. Sample were PCR amplified for 35 cycles (95° C., 30 s; 60° C., 30 s; 72° C., 60 s) in a 50 μl reaction that contains 2 μl of the extracted DNA, 2.5 μl of each 10 μM target region amplification primer (SSA-Cell-F4, 5′-[…] (SEQ ID NO: 183); SSA-Cell-R4, 5′-[…] (SEQ ID NO: 184)), and 25 μl of GoTaq green master mix (Promega). PCR reactions were then separated on 2% agarose gels and the percentages of SSA-repaired products were quantified using ImageJ.

In the next series the target is T2, S-07 (S7) NK-TALEN (synthetic, UniProt B2SU53 SEQ:41-1041).
T2 chain: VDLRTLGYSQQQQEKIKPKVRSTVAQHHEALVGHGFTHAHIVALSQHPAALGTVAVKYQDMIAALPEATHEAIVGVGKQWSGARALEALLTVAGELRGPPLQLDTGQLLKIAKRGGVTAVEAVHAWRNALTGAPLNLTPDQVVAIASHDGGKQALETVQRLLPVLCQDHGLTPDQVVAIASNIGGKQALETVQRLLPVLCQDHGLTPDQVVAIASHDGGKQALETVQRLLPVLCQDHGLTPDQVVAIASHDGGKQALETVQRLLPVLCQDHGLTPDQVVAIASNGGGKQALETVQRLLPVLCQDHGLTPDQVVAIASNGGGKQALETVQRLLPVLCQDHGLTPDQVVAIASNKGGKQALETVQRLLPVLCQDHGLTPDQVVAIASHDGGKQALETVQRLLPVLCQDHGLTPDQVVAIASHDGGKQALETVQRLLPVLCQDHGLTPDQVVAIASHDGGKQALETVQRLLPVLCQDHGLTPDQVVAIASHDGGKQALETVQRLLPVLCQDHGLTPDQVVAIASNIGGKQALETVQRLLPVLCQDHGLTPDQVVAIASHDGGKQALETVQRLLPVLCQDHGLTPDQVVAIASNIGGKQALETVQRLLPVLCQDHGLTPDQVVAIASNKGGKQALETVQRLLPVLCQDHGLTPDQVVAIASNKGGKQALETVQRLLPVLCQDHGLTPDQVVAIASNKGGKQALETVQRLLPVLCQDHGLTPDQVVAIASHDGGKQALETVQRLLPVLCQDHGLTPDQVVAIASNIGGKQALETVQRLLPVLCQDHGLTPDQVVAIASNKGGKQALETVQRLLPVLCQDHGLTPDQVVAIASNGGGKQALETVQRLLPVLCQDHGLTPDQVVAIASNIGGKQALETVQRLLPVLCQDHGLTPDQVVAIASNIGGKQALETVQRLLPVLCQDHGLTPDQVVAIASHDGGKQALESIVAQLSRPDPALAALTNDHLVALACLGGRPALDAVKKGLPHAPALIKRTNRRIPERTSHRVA
Briefly: cell_activity; monomer SSA assay. The settings on record: tags: 3xFLAG, NLS, FokI. Here is the method: as §1

B1: S-02 half-site (dsDNA)
DNA 1: GCACCTGACTCCTGT
DNA 2: ACAGGAGTCAGGTGC
For the molecule B1, the activity in the series with S-02 (S2) NK-TALEN turned out to be 23 % SSA.

B2: S-07 half-site (dsDNA)
DNA 1: CACCTTGCCCCACAGGGCAGTAAC
DNA 2: GTTACTGCCCTGTGGGGCAAGGTG
B2 showed an activity with S-07 (S7) NK-TALEN of 7.5 % SSA.

The record behind these values is patent US20150132821, “Systems and Methods for Improving Nuclease Specificity and Activity” (Georgia Tech Research Corporation, published 2015).
